How the values were obtained:
Test in all cases: anti-FLAG co-immunoprecipitation, SILAC LC-MS
Conditions in all cases: chain shown with the change; Ramos PTP1B KO cells; n = 3; read off a plot; scale: log10 SILAC ratio
[1] = target: T1, intersectin-2 (ITSN2), Q9NZM3
T1 chain: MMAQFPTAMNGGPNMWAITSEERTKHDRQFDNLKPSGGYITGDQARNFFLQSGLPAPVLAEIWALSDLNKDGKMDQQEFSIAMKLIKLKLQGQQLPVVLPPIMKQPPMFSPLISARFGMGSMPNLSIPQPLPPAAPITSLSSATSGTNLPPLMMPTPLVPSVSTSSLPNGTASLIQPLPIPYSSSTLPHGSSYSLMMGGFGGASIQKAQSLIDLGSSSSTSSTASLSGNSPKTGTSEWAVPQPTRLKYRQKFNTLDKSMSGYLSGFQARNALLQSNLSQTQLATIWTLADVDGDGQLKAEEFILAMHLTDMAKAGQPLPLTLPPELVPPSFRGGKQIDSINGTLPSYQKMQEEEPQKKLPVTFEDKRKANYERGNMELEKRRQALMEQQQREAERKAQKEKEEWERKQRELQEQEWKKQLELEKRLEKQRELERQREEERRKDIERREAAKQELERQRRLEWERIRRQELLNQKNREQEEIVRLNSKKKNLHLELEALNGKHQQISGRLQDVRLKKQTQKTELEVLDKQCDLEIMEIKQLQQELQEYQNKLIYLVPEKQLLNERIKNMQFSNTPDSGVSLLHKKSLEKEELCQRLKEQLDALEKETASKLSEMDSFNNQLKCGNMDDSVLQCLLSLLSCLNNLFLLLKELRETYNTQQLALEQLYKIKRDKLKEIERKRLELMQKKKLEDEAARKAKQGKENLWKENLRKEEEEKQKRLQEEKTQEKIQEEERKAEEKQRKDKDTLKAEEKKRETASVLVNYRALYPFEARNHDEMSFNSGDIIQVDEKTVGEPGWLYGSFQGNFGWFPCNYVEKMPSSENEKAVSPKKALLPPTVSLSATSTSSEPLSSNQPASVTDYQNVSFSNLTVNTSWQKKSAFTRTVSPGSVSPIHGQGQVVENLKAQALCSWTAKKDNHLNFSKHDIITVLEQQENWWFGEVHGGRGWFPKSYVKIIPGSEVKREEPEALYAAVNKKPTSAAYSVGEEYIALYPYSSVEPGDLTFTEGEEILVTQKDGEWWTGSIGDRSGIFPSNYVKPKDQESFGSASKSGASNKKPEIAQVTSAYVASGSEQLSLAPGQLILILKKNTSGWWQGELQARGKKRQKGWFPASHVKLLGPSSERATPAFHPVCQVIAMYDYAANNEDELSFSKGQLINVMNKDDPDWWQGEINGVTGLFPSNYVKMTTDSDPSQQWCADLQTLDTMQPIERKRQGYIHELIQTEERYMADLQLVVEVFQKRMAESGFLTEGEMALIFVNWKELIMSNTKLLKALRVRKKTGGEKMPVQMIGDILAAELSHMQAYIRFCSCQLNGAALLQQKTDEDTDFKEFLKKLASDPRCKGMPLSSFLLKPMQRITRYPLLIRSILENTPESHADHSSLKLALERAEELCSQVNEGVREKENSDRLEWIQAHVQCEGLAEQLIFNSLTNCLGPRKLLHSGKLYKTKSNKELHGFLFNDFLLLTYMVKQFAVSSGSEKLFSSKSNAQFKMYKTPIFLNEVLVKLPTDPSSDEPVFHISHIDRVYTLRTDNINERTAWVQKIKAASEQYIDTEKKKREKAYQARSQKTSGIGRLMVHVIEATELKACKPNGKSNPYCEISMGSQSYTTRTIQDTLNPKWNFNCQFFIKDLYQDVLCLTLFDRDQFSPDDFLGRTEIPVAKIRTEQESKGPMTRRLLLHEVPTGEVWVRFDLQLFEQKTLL

[2] = target: amyloid-like protein 2 (APLP2), Q06481
PLCγ1, P19174 = target: T2, PLCγ1, P19174
T2 chain: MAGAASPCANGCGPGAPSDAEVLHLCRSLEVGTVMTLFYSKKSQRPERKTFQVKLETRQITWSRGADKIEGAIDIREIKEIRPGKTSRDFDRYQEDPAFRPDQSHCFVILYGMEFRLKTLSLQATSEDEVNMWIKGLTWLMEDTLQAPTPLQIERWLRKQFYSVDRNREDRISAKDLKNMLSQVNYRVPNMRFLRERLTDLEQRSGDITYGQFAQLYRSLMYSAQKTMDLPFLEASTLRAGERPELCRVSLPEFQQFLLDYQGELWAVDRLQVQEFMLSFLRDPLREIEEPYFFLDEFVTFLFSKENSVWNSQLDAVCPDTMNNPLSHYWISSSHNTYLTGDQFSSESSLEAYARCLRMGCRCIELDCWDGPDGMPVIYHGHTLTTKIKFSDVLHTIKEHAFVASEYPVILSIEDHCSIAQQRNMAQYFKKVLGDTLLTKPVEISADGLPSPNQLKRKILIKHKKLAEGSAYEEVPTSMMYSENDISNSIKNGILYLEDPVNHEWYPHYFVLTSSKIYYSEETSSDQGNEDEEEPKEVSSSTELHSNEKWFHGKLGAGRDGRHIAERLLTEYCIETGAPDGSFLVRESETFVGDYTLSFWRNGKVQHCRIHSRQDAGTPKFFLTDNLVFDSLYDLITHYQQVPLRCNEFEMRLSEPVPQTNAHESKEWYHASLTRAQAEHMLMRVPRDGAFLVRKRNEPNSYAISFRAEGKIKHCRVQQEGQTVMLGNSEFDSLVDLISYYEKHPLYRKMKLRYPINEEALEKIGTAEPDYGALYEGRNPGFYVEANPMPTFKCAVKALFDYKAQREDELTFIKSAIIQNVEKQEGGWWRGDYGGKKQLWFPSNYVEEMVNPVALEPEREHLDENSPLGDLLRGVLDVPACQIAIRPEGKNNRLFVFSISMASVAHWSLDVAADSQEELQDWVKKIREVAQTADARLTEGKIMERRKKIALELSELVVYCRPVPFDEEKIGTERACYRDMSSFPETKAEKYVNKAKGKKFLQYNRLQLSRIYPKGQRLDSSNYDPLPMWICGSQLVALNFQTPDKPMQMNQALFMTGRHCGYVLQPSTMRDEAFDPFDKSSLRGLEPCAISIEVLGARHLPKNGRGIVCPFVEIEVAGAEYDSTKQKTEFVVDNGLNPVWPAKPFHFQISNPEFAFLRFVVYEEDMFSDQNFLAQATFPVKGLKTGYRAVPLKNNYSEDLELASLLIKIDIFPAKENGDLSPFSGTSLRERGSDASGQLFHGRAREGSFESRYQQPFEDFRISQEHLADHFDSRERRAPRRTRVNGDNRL

[3] = target: T3, epidermal growth factor receptor substrate 15-like 1 (EPS15L1), Q9UBC2
T3 chain: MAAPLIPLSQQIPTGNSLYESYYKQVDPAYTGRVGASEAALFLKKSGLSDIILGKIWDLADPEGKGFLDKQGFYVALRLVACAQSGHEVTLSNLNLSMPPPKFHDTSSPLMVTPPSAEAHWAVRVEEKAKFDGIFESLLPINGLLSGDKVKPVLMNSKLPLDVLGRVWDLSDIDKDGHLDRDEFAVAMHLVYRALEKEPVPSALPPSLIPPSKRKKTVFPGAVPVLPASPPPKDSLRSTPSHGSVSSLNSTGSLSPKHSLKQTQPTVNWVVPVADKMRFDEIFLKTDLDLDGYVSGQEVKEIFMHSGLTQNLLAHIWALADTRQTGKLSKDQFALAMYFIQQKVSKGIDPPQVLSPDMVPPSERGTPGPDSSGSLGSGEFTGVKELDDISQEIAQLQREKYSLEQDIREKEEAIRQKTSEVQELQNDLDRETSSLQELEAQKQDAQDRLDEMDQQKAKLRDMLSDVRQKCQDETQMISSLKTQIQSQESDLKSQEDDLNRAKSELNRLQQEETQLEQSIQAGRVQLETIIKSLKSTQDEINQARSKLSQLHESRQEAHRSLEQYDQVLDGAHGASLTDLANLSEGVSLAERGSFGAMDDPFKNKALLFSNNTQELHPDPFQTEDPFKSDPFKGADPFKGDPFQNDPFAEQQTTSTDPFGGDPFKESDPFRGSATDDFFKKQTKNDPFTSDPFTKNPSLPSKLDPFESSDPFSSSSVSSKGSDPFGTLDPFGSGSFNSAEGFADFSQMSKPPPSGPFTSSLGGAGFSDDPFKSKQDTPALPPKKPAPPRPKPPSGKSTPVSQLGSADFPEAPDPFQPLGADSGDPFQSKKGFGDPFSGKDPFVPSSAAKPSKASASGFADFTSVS

[4] = target: growth factor receptor-bound protein 2 (GRB2), P62993
PLCγ2, P16885 = target: T4, PLCγ2, P16885
T4 chain: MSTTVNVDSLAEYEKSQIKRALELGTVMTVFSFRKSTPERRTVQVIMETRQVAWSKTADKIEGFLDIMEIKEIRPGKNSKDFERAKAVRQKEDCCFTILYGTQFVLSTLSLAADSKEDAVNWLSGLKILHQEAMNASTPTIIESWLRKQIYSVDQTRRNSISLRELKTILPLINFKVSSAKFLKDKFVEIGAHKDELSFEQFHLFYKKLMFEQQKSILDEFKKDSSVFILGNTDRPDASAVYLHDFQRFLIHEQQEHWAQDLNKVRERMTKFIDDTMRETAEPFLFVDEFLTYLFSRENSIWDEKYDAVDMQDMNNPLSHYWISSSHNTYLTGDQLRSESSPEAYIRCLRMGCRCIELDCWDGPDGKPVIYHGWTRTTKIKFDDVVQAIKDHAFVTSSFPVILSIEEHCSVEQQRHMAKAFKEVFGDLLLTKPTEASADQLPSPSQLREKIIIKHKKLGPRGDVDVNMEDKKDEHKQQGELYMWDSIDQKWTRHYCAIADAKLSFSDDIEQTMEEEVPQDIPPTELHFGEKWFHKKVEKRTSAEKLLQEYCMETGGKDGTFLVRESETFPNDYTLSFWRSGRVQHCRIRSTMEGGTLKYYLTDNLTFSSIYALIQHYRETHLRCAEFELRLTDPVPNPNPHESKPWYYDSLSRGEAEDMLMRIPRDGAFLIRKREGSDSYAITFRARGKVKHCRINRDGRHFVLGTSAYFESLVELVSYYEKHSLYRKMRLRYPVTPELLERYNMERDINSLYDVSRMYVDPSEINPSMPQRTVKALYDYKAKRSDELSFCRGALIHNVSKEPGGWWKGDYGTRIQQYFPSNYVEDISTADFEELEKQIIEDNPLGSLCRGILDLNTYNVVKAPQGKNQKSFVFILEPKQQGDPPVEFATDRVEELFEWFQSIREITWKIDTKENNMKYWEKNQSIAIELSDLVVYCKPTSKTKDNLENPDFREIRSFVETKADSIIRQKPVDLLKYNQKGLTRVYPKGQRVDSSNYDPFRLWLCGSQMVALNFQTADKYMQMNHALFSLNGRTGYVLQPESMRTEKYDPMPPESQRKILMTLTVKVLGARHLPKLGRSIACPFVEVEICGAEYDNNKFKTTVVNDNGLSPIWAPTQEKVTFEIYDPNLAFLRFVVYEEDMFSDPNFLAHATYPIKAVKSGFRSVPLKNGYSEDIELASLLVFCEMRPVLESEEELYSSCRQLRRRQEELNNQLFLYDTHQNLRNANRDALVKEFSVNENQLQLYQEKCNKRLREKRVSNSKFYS

[5] = target: E3 ubiquitin-protein ligase CBL, P22681

Chain of amyloid-like protein 2 (APLP2), Q06481 (Q06481 32-763): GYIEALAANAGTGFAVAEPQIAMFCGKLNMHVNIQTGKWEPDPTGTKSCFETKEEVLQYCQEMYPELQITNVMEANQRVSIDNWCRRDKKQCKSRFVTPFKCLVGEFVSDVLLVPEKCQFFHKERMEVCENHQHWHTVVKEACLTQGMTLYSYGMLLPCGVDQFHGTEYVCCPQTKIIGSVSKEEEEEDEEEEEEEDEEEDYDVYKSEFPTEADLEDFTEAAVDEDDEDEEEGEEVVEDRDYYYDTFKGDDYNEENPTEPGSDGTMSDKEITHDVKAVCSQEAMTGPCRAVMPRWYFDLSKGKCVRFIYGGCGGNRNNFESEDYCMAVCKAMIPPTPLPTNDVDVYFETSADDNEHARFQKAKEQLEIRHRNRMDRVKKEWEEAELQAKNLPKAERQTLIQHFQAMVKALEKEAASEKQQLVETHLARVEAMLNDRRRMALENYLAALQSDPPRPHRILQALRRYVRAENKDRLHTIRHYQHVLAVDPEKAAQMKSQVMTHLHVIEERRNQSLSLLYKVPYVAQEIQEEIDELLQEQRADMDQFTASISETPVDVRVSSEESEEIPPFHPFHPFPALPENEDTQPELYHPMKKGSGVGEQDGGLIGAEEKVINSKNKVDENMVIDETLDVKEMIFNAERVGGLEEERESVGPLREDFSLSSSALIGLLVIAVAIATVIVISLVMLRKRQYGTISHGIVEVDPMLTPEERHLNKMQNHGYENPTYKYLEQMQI

enrichment [1]: 0.62 | enrichment [2]: 1.3 | enrichment (PLCγ1, P19174): 0.87 | enrichment [3]: 0.59 | enrichment [4]: 0.87 | enrichment (PLCγ2, P16885): 0.48 | enrichment [5]: 0.74
B1: D181A; Y46F (protein)
chain: MEMEKEFEQIDKSGSWAAIYQDIRHEASDFPCRVAKLPKNKNRNRFRDVSPFDHSRIKLHQEDNDYINASLIKMEEAQRSYILTQGPLPNTCGHFWEMVWEQKSRGVVMLNRVMEKGSLKCAQYWPQKEEKEMIFEDTNLKLTLISEDIKSYYTVRQLELENLTTQETREILHFHYTTWPAFGVPESPASFLNFLFKVRESGSLSPEHGPVVVHCSAGIGRSGTFCLADTCLLLMDKRKDPSSVDIKKVLLEMRKFRMGLIQTADQLRFSYLAVIEGAKFIMGDSSVQDQWKELSHEDLEPPPEHIPPPPRPPKRILEPHNGKCREFFPNHQWVKEETQEDKDCPIKEEKGSPLNAAPYGIESMSQDTEVRSRVVGGSLRGAQAASPAKGEPSLPEKDEDHALSY

Reference: PMC8473724
